Results as given in patent publication US12624096B2, “Anti-tau antibodies and methods of use thereof” (GTInvent Limited, priority 2020, dated 2026).
“Also recorded” adds a separate entry of the source.

B1: CC7: anti-tau clone, SEQ ID NO: 365 (protein)
scFv: QVQLQESGPSLVKPSQTLSLTCTVSGFSLTSNAVIWVRQAPGKAPEWVALIDVDGDAAYDPALKSRLSITRDTSKSQVSLSLRSVTTEDTAVYYCARDYGSWGYVSDIDYWGPGLLVTVSSEGKSSGASGESKVDDRVVRTQPSSVSGSLGQRVSITCSGSYITGSSVGWFQQVPGSGLKTVIYDNNDRPSGVPDRFSGSKSGDTATLTISSLQAEDEADYYCASYDTSNIGLFGSGTRLTVLG
modifications: CC7 amino acid sequence
B2: E2B7: anti-tau clone, SEQ ID NO: 254 (protein)
scFv: QVQLQESGPSLVKPSQTLSLTCTVSGFSLTSWGVAWVRQAPGKALEWLGTMRSGGGTEYNPALKSRLSITRDTSKSQVSLSLSSVTTEDMAMYYCARGYLSGIHYAWGRGLLVSVSSEGKSSGASGESKVDDQAVLTQLSSVSGSLGQRVSITCSGSSSNVGDGDYVGWFQQLPGSAPKLLIYSARNRASGVPDRFSGSRSGNTATLTITSLQAEDEADYYCASIDTSRSHIFGSGTRLTVLG
modifications: E2B7 amino acid sequence
B3: CE2: anti-tau clone referred to as CE2 or E1B8, SEQ ID NO: 366 (protein)
scFv: QVQLQESGPSLVKPSQTLSLTCTVSGFSLTNYPVGWVRQAPGKALEWIGNIENDGSANYASALKSRLSITRDTSKNQVSLSLSSATTEDTAVYYCGREFGGSDGYTYFVDIDYWGPGLLVTVSSEGKSSGASGESKVDDQAVLTQPSSVSKSLGQSVSITCSGSSSNVGYGNYVSWFQQVPGSAPKILIYGATSRASGVPDRFSGSRSGNTATLTITSLQAEDEADYYCASYDGSSSGVFGSGTRLTVLG
modifications: CE2/E1B8 amino acid sequence
B4: NS2A1: anti-tau clone, SEQ ID NO: 220 (protein)
scFv: QVQLQESGPSLVKPSQTLSLTCTVSGFSLSTNSVGWVRQAPGKAPEWVAGIDTDGEEGFNPVLKSRLSITRDTSKSQVSLSLSNVTSEDTAVYYCGRSYRTDGLAYGYVQAIDYWGPGLLVTISSEGKSSGASGESKVDDQSVLTQPSSVSGSPGQTVSITCSGSYIGSSGVGWFQQLPGSGLRTIIVASDGRPSGVPDGFSMSKSGNTATLTISSLQAEDEADYFCGSSDRTQYTGLFGSGTRLTVLG
modifications: NS2A1 amino acid sequence

Legend:
hT40 = hT40 (Homo sapiens, UniProt P10636); assay: Biacore X100 SPR, scAb captured via anti-HuCk, hT40 as analyte; type: binding; conditions: scAb, Table 23, T441 (hT40)
Experimental: Surface plasmon resonance (SPR) is widely regarded as the gold standard for real time measurement of protein-protein interactions such as antibody binding. All SPR experiments were carried out using a Biacore X100 machine and HBS EP+ running buffer (GE Healthcare). A ‘capture’ method was followed for affinity measurements, where an anti-human constant kappa chain (HuCk) antibody was conjugated to the surface of a CM5 sensor chip using an amine coupling kit and scAb molecules were immobilised via their HuCk domain. Amine coupling is a very common approach for immobilising the ligand to the chip surface. […] The capture antibody was diluted 1/100 in 10 mM Sodium acetate buffer pH 5.0 and passed over the activated chip surface for a period of at least 420 s. Final ligand immobilisation levels over 12,000 RU were deemed to be satisfactory.
(§1) Following immobilisation, the level of each scAb to be captured was identified using the standard SPR equation with a theoretical RMax of 100 RU. Analyte MW refers to the molecular weight of hT40 or dGA/dGAE molecules, while ligand MW refers to the molecular weight of the scAbs tested. RL is the desired capture level and S refers to the stoichiometric ratio:
The scAb to be tested was added only to flow cell 2 so that flow cell 1 could act as a control to subtract any interaction with the analyte and the chip surface. Both single and multi-cycle runs were utilised using wizards developed in the Biacore X100 control software which are both accepted methods of kinetic analysis (Karlsson, R., et al. Analyzing a kinetic titration series using affinity biosensors (2006) Analytical Biochemistry 349:136-47). The multi-cycle protocol was as follows-Three start-up cycles composed of an initial capture, to the desired level, of the scAb to be tested was performed followed by a 30 s injection of glycine buffer pH 2.0 after each cycle to regenerate the chip surface. […] Following three start-up cycles increasing concentrations (0.15625 nM-100 nM) of the target to be tested were added to the chip surface after the desired scAb capture. The target was added for a 120 s association period and 420 s dissociation period followed by another regeneration, 30 s injection of glycine buffer pH 2.0 in between each cycle.
(§2) The single cycle kinetics protocol was similar and utilised the same level of scAb capture. Three start-up cycles were used followed by 5 increasing concentrations of the analyte (6.25 nM-100 nM) for an association period of 120 s followed by a dissociation period of 420 s for each concentration. In single cycle kinetics the regeneration step was performed only after the final analyte concentration was added. Binding responses were analysed in Biacore X100 evaluation software and data fitted to a 1:1 binding model to obtain kinetic and affinity characterisation.

human tau and mouse tau = assay: Western blot of WT, L66+/+ and L1+/+ mouse brain homogenates; type: binding; conditions: 20 μg protein, 5-month-old mice
Experimental: Protein equivalent to 20 μg from each brain extract was separated using 4-20% bis-tris gels and run in 1×MES buffer.
A band is detected in each sample (WT, L66^+/+ and L1^+/+) with an apparent molecular weight of approximately 55 kDa. This band most likely corresponds to endogenous mouse tau which is of a similar size. In the L66^+/+ samples, a second band running at approximately 68 kDa is also detected. The presence of numerous other bands indicates proteolytic truncation of tau within brain homogenates.

htau40 = htau40 (Homo sapiens, UniProt P10636); assay: Biacore X100 SPR of anti-tau mAbs on immobilised htau40; type: binding
Experimental: For anti-tau mAb SPR measurements, htau40 was conjugated to the surface of a CM5 sensor chip using amine coupling as explained previously. Briefly, 2 μg/mL htau40 in 10 mM Sodium acetate buffer (pH 4.0) was passed over the activated chip surface (EDC/NHS) in flow cell 2 for a period for 45 s followed by blocking with 1 M ethanolamine-HCl PH 8.5. Flow cell 1 was set up as reference control and blocked simultaneously. Final immobilisation level of htau40 (Rmax) was approximately 250 RU. Following a minimum of three start-up cycles, increasing concentrations (0.78 nM-25 nM) of the mAb in HBS-EP+ buffer was added at a rate of 30 μL/min to the chip. The mAb was added for a 120 s association period and 600 s dissociation period followed by a regeneration cycle of 30 s injection of glycine buffer pH 1.5 in between each cycle. Binding responses were analysed in Biacore X100 evaluation software and data fitted to a 1:1 binding model to obtain kinetic and affinity characterisation.
For anti-tau mAb SPR measurements (Biacore X100™) and epitope mapping, the same methodologies described above (see Example 16) were followed. Kinetic rates and equilibrium binding constants of additional anti-tau mAbs and the regions recognised on hT40 are given in the Table 25 below

[1] = system: hT40, dGA, dGAE and truncated tau fragments/peptides; assay: Binding ELISA for epitope mapping with truncated tau proteins and biotinylated 13mer peptides; parameters: species or system human; conditions: direct binding ELISA
Experimental: A series of binding ELISA was performed using various truncated versions of the tau protein and 13mer peptide libraries spanning the entire hT40 molecule for mapping the epitopes of anti-tau scAbs (Full list of protein antigens used is given in Table 14). In general, ELISA plates were coated with 1 μg/ml hT40 or dGA or dGAE or other truncated versions of the protein and in the case of biotinylated peptides, plates were coated with 5 μg/ml Streptavidin followed by 1 μg/ml biotinylated peptide. The plates were blocked with 2% MPBS and scAb samples added at desired starting concentrations and double diluted across the plate. Binding was detected using anti-Human C Kappa HRP conjugated secondary antibody and the resulting immunoreaction was developed and absorbance values measured as described above.
Similarly, dGA binding ‘NS’, ‘S’ and ‘M’ group scAbs were subjected to further antigen binding ELISA using shorter tau proteins and biotinylated 13mer peptides as shown below (FIGS. 10A-F) and (FIGS. 11A-R).
For anti-tau mAb SPR measurements (Biacore X100™) and epitope mapping, the same methodologies described above (see Example 16) were followed.

dGA = dGA (Homo sapiens, UniProt P10636); assay: Biacore X100 SPR, scAb captured via anti-HuCk, dGA as analyte; type: binding; conditions: dissociation rate
Experimental: Surface plasmon resonance (SPR) is widely regarded as the gold standard for real time measurement of protein-protein interactions such as antibody binding. All SPR experiments were carried out using a Biacore X100 machine and HBS EP+ running buffer (GE Healthcare). A ‘capture’ method was followed for affinity measurements, where an anti-human constant kappa chain (HuCk) antibody was conjugated to the surface of a CM5 sensor chip using an amine coupling kit and scAb molecules were immobilised via their HuCk domain. Amine coupling is a very common approach for immobilising the ligand to the chip surface. The chip surface has a dextran matrix derivatised with carboxyl groups, which after activation with N-hydroxysuccinimide (NHS) and 1-ethyl-3-(3-dimethylaminopropyl) carbodiimide (EDC), form reactive succinimide esters which allows the covalent capturing of the ligand via any available primary amine groups (e.g. Lysine) on the ligand (in this case anti-HuCk antibody). The capture antibody was diluted 1/100 in 10 mM Sodium acetate buffer pH 5.0 and passed over the activated chip surface for a period of at least 420 s. Final ligand immobilisation levels over 12,000 RU were deemed to be satisfactory.
as §1
The scAb to be tested was added only to flow cell 2 so that flow cell 1 could act as a control to subtract any interaction with the analyte and the chip surface. Both single and multi-cycle runs were utilised using wizards developed in the Biacore X100 control software which are both accepted methods of kinetic analysis (Karlsson, R., et al. Analyzing a kinetic titration series using affinity biosensors (2006) Analytical Biochemistry 349:136-47). The multi-cycle protocol was as follows-Three start-up cycles composed of an initial capture, to the desired level, of the scAb to be tested was performed followed by a 30 s injection of glycine buffer pH 2.0 after each cycle to regenerate the chip surface. The regeneration step removed any captured scAb whilst leaving the capture antibody intact and able to repeat the capture for the next cycle. Following three start-up cycles increasing concentrations (0.15625 nM-100 nM) of the target to be tested were added to the chip surface after the desired scAb capture. The target was added for a 120 s association period and 420 s dissociation period followed by another regeneration, 30 s injection of glycine buffer pH 2.0 in between each cycle.
as §2

[2] = system: alanine substituted 13mer tau peptides; assay: Alanine scanning mutagenesis (ASM) peptide ELISA; type: binding, human; conditions: numbering according to SEQ ID NO: 1; description text 'may be'
Experimental: To further elucidate epitopes of the scAb panel, and identify the critical amino acids needed for binding, alanine scanning mutagenesis of the parent 13 aa peptides for scAbs CE2, S1D12, CA4 and S1G2 was performed. […] Briefly, 5 μg/ml streptavidin (Thermo Fisher) was adsorbed to Nunc 96-well MaxiSorp plates and following incubation at 37° C., for 1 h, the plates were washed as normal and blocked with 2% MPBS. N-terminally biotinylated peptides (Prolmmune Ltd) were added to the plates and incubated for 1 h at 37° C. Subsequently, test scAbs at starting concentrations of 100-500 nM was added and double diluted across the plate for each peptide and incubated for 1 h at 37° C. Rest of the ELISA was conducted as described above and the plates were read at absorbance 450 nm. Immunoreactivity of the scAb of interest was quantified as the % of scAb was bound for each peptide at a chosen concentration (FIG. 15-20).

[3] = mAb, Table 27, immobilised hT40
[4] = newly converted mAbs, Table 25 (Example 28), hT40

htau40, sequence (P10636 1-441 isoform P10636-8): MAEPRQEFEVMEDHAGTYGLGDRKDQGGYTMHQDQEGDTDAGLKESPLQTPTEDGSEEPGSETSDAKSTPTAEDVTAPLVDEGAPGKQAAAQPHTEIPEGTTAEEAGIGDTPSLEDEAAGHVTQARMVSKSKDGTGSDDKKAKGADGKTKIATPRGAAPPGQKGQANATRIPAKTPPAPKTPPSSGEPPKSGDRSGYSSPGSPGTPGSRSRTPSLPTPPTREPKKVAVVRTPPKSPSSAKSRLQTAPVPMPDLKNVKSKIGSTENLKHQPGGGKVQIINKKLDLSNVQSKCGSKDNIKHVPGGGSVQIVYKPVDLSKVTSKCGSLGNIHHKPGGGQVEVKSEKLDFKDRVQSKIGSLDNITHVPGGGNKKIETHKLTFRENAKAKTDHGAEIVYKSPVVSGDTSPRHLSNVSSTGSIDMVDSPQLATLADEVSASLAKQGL
hT40, sequence (P10636 1-441 isoform P10636-8): as above
dGA, sequence (P10636 614-707): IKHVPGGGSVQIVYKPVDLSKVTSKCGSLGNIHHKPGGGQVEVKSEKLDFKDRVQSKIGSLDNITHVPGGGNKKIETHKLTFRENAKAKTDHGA

| Molecule | ka (hT40) | kd (hT40) | bands detected in western blot of WT, L66+/+ and L1+/+ brain homogenates (human tau and mouse tau) | ka (htau40; [3]) | kd (htau40; [3]) | cross-reactivity of 'E' group scAbs using hT40, dGA and dGAE antigens [1] | Kd (dGA) | ka (htau40; [4]) | kd (htau40; [4]) | Critical residues of the epitope [2] | Kd (htau40; mAb, Table 27, read-out: kD (M) for hT40 binding) |
| --- | --- | --- | --- | --- | --- | --- | --- | --- | --- | --- | --- |
| B1 | 295700 M⁻¹ s⁻¹ | 0.0003659 s⁻¹ | show specificity for human tau | 4.576e+06 M⁻¹ s⁻¹ | 0.03164 s⁻¹ |  |  |  |  |  |  |
| B2 |  |  |  |  |  | specific dGAE binding |  |  |  |  |  |
| B3 | 213700 M⁻¹ s⁻¹ | 0.001077 s⁻¹ |  | 457900 M⁻¹ s⁻¹ | 0.005218 s⁻¹ | cross-reacts with dGA; also recorded: specific binding to the tau peptide representing amino acids from 313-336 | 0.00242 s⁻¹ | 323800 M⁻¹ s⁻¹ | 0.001367 s⁻¹ | 323 (G), 324 (S), 325 (L), 326 (G), 327 (N) and/or 328 (I) |  |
| B4 | 252100 M⁻¹ s⁻¹ | 0.0007393 s⁻¹ |  | 893700 M⁻¹ s⁻¹ | 0.002621 s⁻¹ |  | 0.00102 s⁻¹ |  |  |  | 1e-08 M |
